This is an account of results in patent US20210355194A1 (TWIST BIOSCIENCE, published 2021).

This assay addresses T1, Acro SARS-CoV-2 (COVID-19) S1 protein (SARS-CoV-2, UniProt P0DTC2 16-685).
T1 construct: also called SARS-CoV-2 S1
In words: SPR. On the technique in general: In SPR one partner is held on a chip, and binding of the other changes the refractive index at the surface.

B1: variant 5-52 (Fc fusion)
VHH: EVQLVESGGGLVQPGGSLRLSCAASGEKFSDHWMGWFRQAPGKEREFVATITFSGARTAYADSVKGRFTISADNSKNTAYLQMNSLKPEDTAVYYCAALIKPSSTDRIFEEWGQGTLVTVSS
As to B1, the Kd – broadly, the equilibrium constant for the complex coming apart – came out at 99 nM.

B2: variant 5-59 (Fc fusion)
VHH: EVQLVESGGGLVQPGGSLRLSCAASGLTFSLYRMCWFRQAPGKEREEVSCISNIDGSTYYADSVKGRFTISADNSKNTAYLQMNSLKPEDTAVYYCAADLLGDSDYEPSSGFGWGQGTLVTVSS
Molecule B2 had a Kd of 113 nM.

B3: variant 6-1 (Fc fusion)
VHH: EVQLVESGGGLVQPGGSLRLSCAASGRTFGNYNMGWFRQAPGKEREFVATINSLGGTSYADSVKGRFTISADNSKNTAYLQMNSLKPEDTAVYYCARVDYYMDVWGQGTLVTVSS
For the molecule B3, the Kd was determined as 35.8 nM.

B4: variant 5-60 (Fc fusion)
VHH: EVQLVESGGGLVQPGGSLRLSCAASGRSFSSHRMGWFRQAPGKEREFVAAIMWSGSHRNYADSVKGRFTISADNSKNTAYLQMNSLKPEDTAVYYCAAIAYEEGVYRWDWGQGTLVTVSS
Consider B4, for which the affinity, expressed as Kd, was 29.4 nM.

B5: variant 5-26 (Fc fusion)
VHH: EVQLVESGGGLVQPGGSLRLSCAASGRTISSYIMGWFRQAPGKERELVARIYTGGDTIYADSVKGRFTISADNSKNTAYLQMNSLKPEDTAVYYCAARTSYNGRYDYIDDYSWGQGTLVTVSS
Regarding B5, the Kd was determined as 21800 nM.

B6: variant 5-68 (Fc fusion)
VHH: EVQLVESGGGLVQPGGSLRLSCAASGFTFDHYTMGWFRQAPGKEREFVAAISGSENVTSYADSVKGRFTISADNSKNTAYLQMNSLKPEDTAVYYCAAEPYIPVRTMRHMTFLTWGQGTLVTVSS
Turning to B6, binding was characterised by a dissociation constant (Kd) of 111 nM.

B7: variant 5-63 (Fc fusion)
VHH: EVQLVESGGGLVQPGGSLRLSCAASGFSLDYYDMGWFRQAPGKEREFVAALGWSGGSTDYADSVKGRFTISADNSKNTAYLQMNSLKPEDTAVYYCAAGNGGRYGIVERWGQGTLVTVSS
Molecule B7 returned an equilibrium dissociation constant (Kd) of 10.5 nM.

B8: variant 5-50 (Fc fusion)
VHH: EVQLVESGGGLVQPGGSLRLSCAASGFSLDYYGMGWFRQAPGKEREFVAAITSGGTPHYADSVKGRFTISADNSKNTAYLQMNSLKPEDTAVYYCASAYNPGIGYDWGQGTLVTVSS
In turn, B8 returned a Kd of 60.5 nM.

B9: variant 6-2 (Fc fusion)
VHH: EVQLVESGGGLVQPGGSLRLSCAASGFTMSSSWMGWFRQAPGKEREFVTVISGVGTSYADSVKGRFTISADNSKNTAYLQMNSLKPEDTAVYYCARGPDSSGYGFDYWGQGTLVTVSS
Turning to B9, the Kd worked out at 29.9 nM.

B10: variant 5-49 (Fc fusion)
VHH: EVQLVESGGGLVQPGGSLRLSCAASGRTSTVNGMGWFRQAPGKEREFVASISQSGAATAYADSVKGRFTISADNSKNTAYLQMNSLKPEDTAVYYCAADRTYSYSSTGYYWGQGTLVTVSS
For B10, the Kd turned out to be 74.5 nM.

B11: variant 5-42 (Fc fusion)
VHH: EVQLVESGGGLVQPGGSLRLSCAASGFTPDDYAMGWFRQAPGKEREFVASIGYSGRSNSYNYYADSVKGRFTISADNSKNTAYLQMNSLKPEDTAVYYCAIAHGSSTYNWGQGTLVTVSS
B11 gave a Kd of 116 nM.

B12: variant 5-17 (Fc fusion)
VHH: EVQLVESGGGLVQPGGSLRLSCAASGPTFSIYAMGWFRQAPGKEREFVAGIRWSDVYTQYADSVKGRFTISADNSKNTAYLQMNSLKPEDTAVYYCALDIDYRDWGQGTLVTVSS
B12: the Kd came out at 3630 nM.

B13: variant 5-39 (Fc fusion)
VHH: EVQLVESGGGLVQPGGSLRLSCAASGVTLDLYAMGWFRQAPGKEREFVAGIRWTDAYTEYADSVKGRFTISADNSKNTAYLQMNSLKPEDTAVYYCAVDIDYRDWGQGTLVTVSS
The molecule B13 had a dissociation constant (Kd) of 118 nM.

B14: variant 5-27 (Fc fusion)
VHH: EVQLVESGGGLVQPGGSLRLSCAASGRANSINWMGWFRQAPGKEREFVATITPGGNTNYADSVKGRFTISADNSKNTAYLQMNSLKPEDTAVYYCAAAAGSTWYGTLYEYDWGQGTLVTVSS
Take B14: the Kd was found to be 92.9 nM.

B15: variant 5-51 (Fc fusion)
VHH: EVQLVESGGGLVQPGGSLRLSCAASGRPNSINWMGWFRQAPGKERQFVATITPGGNTNYADSVKGRFTISADNSKNTAYLLMNSLKPEDTAVYYCAAAAGTTWYGTLYEYDWGQGTLVTVSS
Molecule B15 returned a Kd of 25.5 nM.

B16: variant 5-23 (Fc fusion)
VHH: EVQLVESGGGLVQPGGSLRLSCAASGSIFSIDVMGWFRQAPGKEREFVAAISWSGESTLYADSVKGRFTISADNSKNTAYLQMNSLKPEDTAVYYCAAFDGYSGSDWGQGTLVTVSS
B16 yielded a Kd of 84.8 nM.

B17: variant 5-3 (Fc fusion)
VHH: EVQLVESGGGLVQPGGSLRLSCAASGSIFSIDVMGWFRQAPGKEREFVAGISWSGDSTLYADSVKGRFTISADNSKNTAYLQMNSLKPEDTAVYYCAAFDGYTGSDWGQGTLVTVSS
B17 displayed an equilibrium dissociation constant (Kd) of 64.6 nM.

B18: variant 5-22 (Fc fusion)
VHH: EVQLVESGGGLVQPGGSLRLSCAASGFTFNVFAMGWFRQAPGKEREFVAAINWSDSRTDYADSVKGRFTISADNSKNTAYLQMNSLKPEDTAVYYCASGSDNRARELSRYEYVWGQGTLVTVSS
B18 yielded a Kd of 109 nM.

B19: variant 5-65 (Fc fusion)
VHH: EVQLVESGGGLVQPGGSLRLSCAASGNIDRLYAMGWFRQAPGKEREGVAAIDSDGSTDYADSVKGRFTISADNSKNTAYLQMNSLKPEDTAVYYCAALIDYGLGFPIEWGQGTLVTVSS
B19: the affinity, expressed as Kd, was 353 nM.

B20: variant 5-64 (Fc fusion)
VHH: EVQLVESGGGLVQPGGSLRLSCAASGTSISNRVMGWFRQAPGKERELVARIYTGGDTLYADSVKGRFTISADNSKNTAYLQMNSLKPEDTAVYYCAARKIYRSLSYYGDYDWGQGTLVTVSS
As to B20, the Kd worked out at 346 nM.

B21: variant 6-3 (Fc fusion)
VHH: EVQLVESGGGLVQPGGSLRLSCAASGFTFSPSWMGWFRQAPGKEREFVATINEYGGRNYADSVKGRFTISADNSKNTAYLQMNSLKPEDTAVYYCARVDRDFDYWGQGTLVTVSS
notes: VHH-Fc
In turn, B21 came in with a Kd of 12.4 nM.

B22: variant 6-30 (Fc fusion)
VHH: EVQLVESGGGLVQPGGSLRLSCAASGFAFGDSWMGWFRQAPGKEREFVATINWSGVTAYADSVKGRFTISADNSKNTAYLQMNSLKPEDTAVYYCARADGYFDYWGQGTLVTVSS
For B22, the equilibrium dissociation constant (Kd) came to 11.8 nM.

B23: variant 5-28 (Fc fusion)
VHH: EVQLVESGGGLVQPGGSLRLSCAASGGTFSVFAMGWFRQVPGKERELVAEITAGGSTYYADSVKGRFTISADNSKNTAYLQMNSLKPEDTAVYYCAVDGPFGWGQGTLVTVSS
For the molecule B23, the affinity, expressed as Kd, was 40 nM.

B24: variant 5-67 (Fc fusion)
VHH: EVQLVESGGGLVQPGGSLRLSCAASGFNVNDYAMGWFRQAPGKEREFVAGITSSVGVTNYADSVKGRFTISADNSKNTAYLQMNSLKPEDTAVYYCAADIFFVNWGRGTLVTVSS
B24: the Kd worked out at 22.1 nM.

B25: variant 5-15 (Fc fusion)
VHH: EVQLVESGGGLVQPGGSLRLSCAASGFTFDGAAMGWFRQAPGKEREFVATIRWTNSTDYADSVKGRFTISADNSKNTAYLQMNSLKPEDTAVYYCARGRYGIVERWGQGTLVTVSS
Consider B25, for which binding was characterised by a dissociation constant (Kd) of 96.2 nM.

B26: variant 5-56 (Fc fusion)
VHH: EVQLVESGGGLVQPGGSLRLSCAASGRTFSSNMGWFRQAPGKEREFVARIFGGDRTLYADSVKGRFTISADNSKNTAYLQMNSLKPEDTAVYYCADINGDWGQGTLVTVSS
In turn, B26 showed a Kd of 54.3 nM.

B27: variant 5-16 (Fc fusion)
VHH: EVQLVESGGGLVQPGGSLRLSCAASGRTHSIYPMGWFRQAPGKERELVAAIHSGGATVYADSVKGRFTISADNSKNTAYLQMNSLKPEDTAVYYCAARRWIPPGPIWGQGTLVTVSS
Molecule B27 gave a Kd of 50.2 nM.

B28: variant 5-32 (Fc fusion)
VHH: EVQLVESGGGLVQPGGSLRLSCAASGFTPDNYAMGWFRQAPGKEREFVAALGWSGVTTYHYYADSVKGRFTISADNSKNTAYLQMNSLKPEDTAVYYCASDESDAANWGQGTLVTVSS
Molecule B28 gave a Kd of 22.4 nM.

B29: variant 5-13 (Fc fusion)
VHH: EVQLVESGGGLVQPGGSLRLSCAASGFTFDYYTMGWFRQAPGKEREFVAAIRSSGGLFYADSVKGRFTISADNSKNTAYLQMNSLKPEDTAVYYCAAYLDGYSGSWGQGTLVTVSS
Molecule B29 registered a Kd of 37.5 nM.

B30: variant 5-55 (Fc fusion)
VHH: EVQLVESGGGLVQPGGSLRLSCAASGIDVNRNAMGWFRQAPGKEREFVAAITWSGGWRYYADSVKGRFTISADNSKNTAYLQMNSLKPEDTAVYYCATTFGDAGIPDQYDFGWGQGTLVTVSS
For B30, the dissociation constant (Kd) stood at 63.5 nM.

B31: variant 5-29 (Fc fusion)
VHH: EVQLVESGGGLVQPGGSLRLSCAASGFTFDDYPMGWFRQAPGKEREGVASVLRGGYTWYADSVKGRFTISADNSKNTAYLQMNSLKPEDTAVYYCAKDWATGLAWGQGTLVTVSS
Consider B31, for which binding was characterised by a dissociation constant (Kd) of 42.4 nM.

B32: variant 5-21 (Fc fusion)
VHH: EVQLVESGGGLVQPGGSLRLSCAASGGTFTTYHMGWFRQAPGKEREFVAHISTGGATNYADSVKGRFTISADNSKNTAYLQMNSLKPEDTAVYYCATFPAIVTDSDYDLGNDWGQGTLVTVSS
Turning to B32, the Kd was 1070 nM.

B33: variant 5-47 (Fc fusion)
VHH: EVQLVESGGGLVQPGGSLRLSCAASGFTFGSYDMGWFRQAPGKEREFVTAINWSGARTAYADSVKGRFTISADNSKNTAYLQMNSLKPEDTAVYYCAARSVYSYEYNWGQGTLVTVSS
In turn, B33 yielded a Kd of 27.7 nM.
